From US20040170960A1

Target: murine GM-CSF receptor (murine) (UniProt Q00941)
Assay: cell-based or functional assay

Sequence of UniProt Q00941 (Q00941 30-388, chain 1 of 2): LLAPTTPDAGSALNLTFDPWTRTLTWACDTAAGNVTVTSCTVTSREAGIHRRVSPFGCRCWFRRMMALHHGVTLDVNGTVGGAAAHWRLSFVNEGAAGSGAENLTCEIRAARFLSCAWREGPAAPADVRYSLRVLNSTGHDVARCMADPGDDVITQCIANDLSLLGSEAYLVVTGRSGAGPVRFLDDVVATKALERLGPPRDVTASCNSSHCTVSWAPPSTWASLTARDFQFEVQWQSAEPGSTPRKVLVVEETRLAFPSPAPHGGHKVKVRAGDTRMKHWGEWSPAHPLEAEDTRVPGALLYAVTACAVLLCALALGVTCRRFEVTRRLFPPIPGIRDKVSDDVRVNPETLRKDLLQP
Sequence of UniProt Q00941 (P26955 23-896, chain 2 of 2, further chain): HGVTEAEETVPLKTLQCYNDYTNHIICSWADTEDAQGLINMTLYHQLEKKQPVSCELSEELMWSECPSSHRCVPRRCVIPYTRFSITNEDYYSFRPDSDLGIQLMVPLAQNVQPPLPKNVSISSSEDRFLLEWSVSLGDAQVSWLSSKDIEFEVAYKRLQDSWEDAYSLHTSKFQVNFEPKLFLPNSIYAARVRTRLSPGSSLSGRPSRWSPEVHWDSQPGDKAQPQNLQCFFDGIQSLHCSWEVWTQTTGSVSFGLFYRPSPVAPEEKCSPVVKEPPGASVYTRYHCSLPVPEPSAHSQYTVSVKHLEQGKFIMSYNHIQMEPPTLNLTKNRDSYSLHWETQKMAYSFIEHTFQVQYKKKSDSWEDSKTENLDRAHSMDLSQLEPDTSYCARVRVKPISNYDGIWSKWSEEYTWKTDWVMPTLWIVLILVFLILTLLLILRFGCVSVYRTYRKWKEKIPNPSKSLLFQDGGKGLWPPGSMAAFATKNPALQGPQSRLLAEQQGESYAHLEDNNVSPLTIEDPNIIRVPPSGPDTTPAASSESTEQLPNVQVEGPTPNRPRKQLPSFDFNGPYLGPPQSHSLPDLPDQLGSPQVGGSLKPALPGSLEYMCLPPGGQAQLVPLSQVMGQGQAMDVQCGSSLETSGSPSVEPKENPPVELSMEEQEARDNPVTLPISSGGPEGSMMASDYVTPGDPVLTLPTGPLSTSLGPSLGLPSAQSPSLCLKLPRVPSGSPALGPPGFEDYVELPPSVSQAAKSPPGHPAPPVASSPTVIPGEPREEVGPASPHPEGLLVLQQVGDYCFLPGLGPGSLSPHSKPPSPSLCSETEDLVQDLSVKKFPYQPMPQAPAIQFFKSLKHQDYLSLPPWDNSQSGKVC

proliferation of FDC-P1 cells (Biotrak BrdU cell proliferation ELISA): 25%
Substance: murine GM-CSF fused to the S. cerevesiae Gas1 GPI modification signal sequence (from UniProt P01587 18-141; P22146 474-559) (other; the values are: proliferation increase vs soluble GM-CSF)
